From article PMC13188885, “Zero-valent sulfur is the product of assimilatory sulfite reductase and a substrate of cysteine synthase” (Applied and Environmental Microbiology, 2026)

Key:
Experiment in all cases: mBBr-HPLC of cysteine released by TCEP; Michaelis-Menten fit
Conditions in all cases: O-acetyl-L-serine co-substrate 1.0-2.0 mM, 100 µM PLP, pH 7.4, 30 °C
[1] = substrate: O=S(O)(O)=S; format: biochemical, Saccharolobus islandicus
Description: (§1) mBBr-HPLC of cysteine released by TCEP; Michaelis-Menten fit on SiRe_1641 | We then assayed the kinetics of all five cysteine synthases

[2] = substrate: N[C@@H](CCC(=O)N[C@@H](CSS)C(=O)NCC(=O)O)C(=O)O; format: biochemical, Saccharolobus islandicus
Description: as §1

[3] = substrate: O=S(O)(O)=S; format: biochemical, Escherichia coli
Description: (§2) mBBr-HPLC of cysteine released by TCEP; Michaelis-Menten fit on EcCysK | We then assayed the kinetics of all five cysteine synthases

[4] = substrate: N[C@@H](CCC(=O)N[C@@H](CSS)C(=O)NCC(=O)O)C(=O)O; format: biochemical, Escherichia coli
Description: as §2

[5] = substrate: O=S(O)(O)=S; format: biochemical, Escherichia coli; remark: listed apart in the source
Description: (§3) mBBr-HPLC of cysteine released by TCEP; Michaelis-Menten fit on EcCysM | We then assayed the kinetics of all five cysteine synthases

[6] = substrate: N[C@@H](CCC(=O)N[C@@H](CSS)C(=O)NCC(=O)O)C(=O)O; format: biochemical, Escherichia coli; remark: listed apart in the source
Description: as §3

B1: SiRe_1641 (Saccharolobus islandicus REY15A) (protein)
chain: MSNPLHVFSNEQELLEGMWPTPLLKLRIGNDTWAKLEFYNPFSRSVKDRTAWFLFRQALIKNVNHIVEATSGNTGIALASLSSIYGMQFTMFLPVVAPKVYKVLVKLLGGNVIEAGNSTNDVIPLVKRFAEMSNAVNLDQFNNPINVIAHYETTAREIDEQLTSIGKRPSRIIATMGTGGHIAGVAKYFKEKYGNDVEIVGVQPSENSRIPGIKRQNGSNSLLRDIKIDRVVDVSLEEAIDGTISVARTSGILIGISAGATVAAYKRINDVSSTTVLIFPDDAFKYVDILEQTLKEI
notes: N-terminal His-tag, expressed in E. coli BL21(DE3), Ni-NTA
Km [1]: 1126 ± 162 µM | Vmax [1]: 0.065 µM/min/mg | kcat [1]: 1.52 ± 0.511 s⁻¹ | Km [2]: 279 ± 32 µM | Vmax [2]: 0.174 µM/min/mg | kcat [2]: 4.92 ± 1.27 s⁻¹

B2: EcCysK (Escherichia coli K-12) (protein)
chain: MSKIFEDNSLTIGHTPLVRLNRIGNGRILAKVESRNPSFSVKCRIGANMIWDAEKRGVLKPGVELVEPTSGNTGIALAYVAAARGYKLTLTMPETMSIERRKLLKALGANLVLTEGAKGMKGAIQKAEEIVASNPEKYLLLQQFSNPANPEIHEKTTGPEIWEDTDGQVDVFIAGVGTGGTLTGVSRYIKGTKGKTDLISVAVEPTDSPVIAQALAGEEIKPGPHKIQGIGAGFIPANLDLKLVDKVIGITNEEAISTARRLMEEEGILAGISSGAAVAAALKLQEDESFTNKNIVVILPSSGERYLSTALFADLFTEKELQQ
notes: as for B1
Km [3]: 1036 ± 82 µM | Vmax [3]: 0.074 µM/min/mg | kcat [3]: 2.45 ± 0.935 s⁻¹ | Km [4]: 265 ± 37 µM | Vmax [4]: 0.163 µM/min/mg | kcat [4]: 9.78 ± 0.665 s⁻¹

B3: EcCysM (Escherichia coli K-12) (protein)
chain: MSTLEQTIGNTPLVKLQRMGPDNGSEVWLKLEGNNPAGSVKDRAALSMIVEAEKRGEIKPGDVLIEATSGNTGIALAMIAALKGYRMKLLMPDNMSQERRAAMRAYGAELILVTKEQGMEGARDLALEMANRGEGKLLDQFNNPDNPYAHYTTTGPEIWQQTGGRITHFVSSMGTTGTITGVSRFMREQSKPVTIVGLQPEEGSSIPGIRRWPTEYLPGIFNASLVDEVLDIHQRDAENTMRELAVREGIFCGVSSGGAVAGALRVAKANPDAVVVAIICDRGDRYLSTGVFGEEHFSQGAGI
notes: as for B1
Km [5]: 408 ± 28 µM | Vmax [5]: 0.173 µM/min/mg | kcat [5]: 5.81 ± 0.92 s⁻¹ | kcat/Km [5]: 12600 M⁻¹ s⁻¹ | Km [6]: 325 ± 33 µM | Vmax [6]: 0.155 µM/min/mg | kcat [6]: 5.16 ± 1.55 s⁻¹ | kcat/Km [6]: 14700 M⁻¹ s⁻¹
